# Reference: patent US20030148956A1 (PROCTER AND GAMBLE, published 2003)
# T1: corticotropin releasing factor 2 receptor
# T1 sequence (Q13324 whole entry, species assumed, looked up): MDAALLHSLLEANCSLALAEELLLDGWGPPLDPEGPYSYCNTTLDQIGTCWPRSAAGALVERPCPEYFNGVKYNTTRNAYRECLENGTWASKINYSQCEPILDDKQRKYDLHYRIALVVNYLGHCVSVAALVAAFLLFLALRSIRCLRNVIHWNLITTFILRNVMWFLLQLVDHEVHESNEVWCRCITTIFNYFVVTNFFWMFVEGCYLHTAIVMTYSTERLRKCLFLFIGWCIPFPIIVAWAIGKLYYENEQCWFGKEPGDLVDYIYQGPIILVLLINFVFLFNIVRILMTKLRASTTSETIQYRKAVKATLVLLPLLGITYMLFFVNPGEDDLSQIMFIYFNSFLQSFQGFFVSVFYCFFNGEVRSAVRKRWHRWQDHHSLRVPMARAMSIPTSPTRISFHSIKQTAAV
# Target: T1, corticotropin releasing factor 2 …
# Experiment: cell-based or functional assay
CRF2R EC50,CRF2R Emax %,Binder
25.7 nM,100%,ZGPPISIDLPLELLRKMIEIEKQEKEKQQAANNALLLDTI (C-terminal amide) [SEQ ID NO 235]
20.6 nM,100%,ZGPPISIDLPLELLRKMIEIEKQEKEKQQAANNALLLATI (C-terminal amide) [SEQ ID NO 234]
5.9 nM,100%,ZGPPISIDLPFYLLRKMIEIEKQEKEKQQAANNALLLATI (C-terminal amide) [SEQ ID NO 231]
12.6 nM,99%,ZGPPISIDLPLHLLRKMIEIEKQEKEKQQAANNALLLATI (C-terminal amide) [SEQ ID NO 241]
22.2 nM,93%,ZGPPISIDLPIYLLRKMIEIEKQEKEKQQAANNALLLATI (C-terminal amide) [SEQ ID NO 237]
46.1 nM,95%,ZGPPISIDLPTYLLRKMIEIEKQEKEKQQAANNALLLATI (C-terminal amide) [SEQ ID NO 233]
40.4 nM,97%,ZGPPISIDLPIYLLRKMIEIEKQEKEKQQAANNALLLDTI (C-terminal amide) [SEQ ID NO 236]

# More lines, now with the values behind:
Binder,CRF2R EC50,CRF2R Emax %
ZGPPISIDLPAFLLRKMIEIEKQEKEKQQAANNRLLLDTI (C-terminal amide) [SEQ ID NO 222],9.4 nM,100%
ZGPPISIDLPQYLLRKMIEIEKQEKEKQQAANNALLLATI (C-terminal amide) [SEQ ID NO 227],33.6 nM,95%
ZGPPISIDLPQFLLRKMIEIEKQEKEKQQAANNRLLLDTI (C-terminal amide) [SEQ ID NO 221],8.5 nM,100%
ZGPPISIDLPFFLLRKMIEIEKQEKEKQQAANNRLLLDTI (C-terminal amide) [SEQ ID NO 223],3 nM,92%
ZGPPISIDLPYFLLRKMIEIEKQEKEKQQAANNRLLLDTI (C-terminal amide) [SEQ ID NO 220],4.1 nM,98%
ZGPPISIDLPYYLLRKMIEIEKQEKEKQQAANNALLLDTI (C-terminal amide) [SEQ ID NO 226],7.6 nM,100%
ZGPPISIDLPFYLLRKMIEIEKQEKEKQQAANNALLLDTI (C-terminal amide) [SEQ ID NO 230],8.1 nM,100%
ZGPPISIDLPYYLLRKMIEIEKQEKEKQQAANNALLLATI (C-terminal amide) [SEQ ID NO 225],4.8 nM,89%

# Target: corticotropin releasing factor 1 receptor
# Experiment: cell-based or functional assay
CRF1R EC50,CRF1R Emax %,Binder
806 nM,70%,ZGPPISIDLPLELLRKMIEIEKQEKEKQQAANNALLLDTI (C-terminal amide) [SEQ ID NO 235]
434 nM,96%,ZGPPISIDLPLELLRKMIEIEKQEKEKQQAANNALLLATI (C-terminal amide) [SEQ ID NO 234]
94 nM,100%,ZGPPISIDLPFYLLRKMIEIEKQEKEKQQAANNALLLATI (C-terminal amide) [SEQ ID NO 231]
308 nM,99%,ZGPPISIDLPLHLLRKMIEIEKQEKEKQQAANNALLLATI (C-terminal amide) [SEQ ID NO 241]
1000 nM,18%,ZGPPISIDLPIYLLRKMIEIEKQEKEKQQAANNALLLATI (C-terminal amide) [SEQ ID NO 237]
1000 nM,11%,ZGPPISIDLPTYLLRKMIEIEKQEKEKQQAANNALLLATI (C-terminal amide) [SEQ ID NO 233]
1000 nM,15%,ZGPPISIDLPIYLLRKMIEIEKQEKEKQQAANNALLLDTI (C-terminal amide) [SEQ ID NO 236]

# Second part, the binder before the results:
Binder,CRF1R EC50,CRF1R Emax %
ZGPPISIDLPAFLLRKMIEIEKQEKEKQQAANNRLLLDTI (C-terminal amide) [SEQ ID NO 222],384 nM,95%
ZGPPISIDLPQYLLRKMIEIEKQEKEKQQAANNALLLATI (C-terminal amide) [SEQ ID NO 227],918 nM,18%
ZGPPISIDLPQFLLRKMIEIEKQEKEKQQAANNRLLLDTI (C-terminal amide) [SEQ ID NO 221],236 nM,100%
ZGPPISIDLPFFLLRKMIEIEKQEKEKQQAANNRLLLDTI (C-terminal amide) [SEQ ID NO 223],48.1 nM,81%
ZGPPISIDLPYFLLRKMIEIEKQEKEKQQAANNRLLLDTI (C-terminal amide) [SEQ ID NO 220],63.6 nM,81%
ZGPPISIDLPYYLLRKMIEIEKQEKEKQQAANNALLLDTI (C-terminal amide) [SEQ ID NO 226],315 nM,95%
ZGPPISIDLPFYLLRKMIEIEKQEKEKQQAANNALLLDTI (C-terminal amide) [SEQ ID NO 230],219 nM,100%
ZGPPISIDLPYYLLRKMIEIEKQEKEKQQAANNALLLATI (C-terminal amide) [SEQ ID NO 225],220 nM,97%
